Patent publication US20230025280A1, “PH RESPONSIVE COMPOSITIONS, FORMULATIONS, AND METHODS OF IMAGING A TUMOR” (ONCONANO MEDICINE, INC, priority 2019, published 2023)
Where “and” joins values, the source holds several entries; their conditions need not be identical. Equal entries are not always repeated. Entries after “also recorded” stand apart in the source; their conditions may differ.

Legend:
[1] = Stability of Compound 1 at long-term storage condition of −80° C.; assay type: physicochemical
[2] = system: tumor positive surgical margins; assay: Fluorescence detection of tumor positive surgical margins versus final histopathology; assay type: in vivo, human; parameters: key to Histology vs. Fluorescence Correlation: TP = true positive; TN = true negative; FP = false positive; details: for Histology vs. Fluorescence Correlation / Surgical Margin by Fluorescence: per patient
Excerpt: Tumor specimens were processed for histology according to the standard pathology practice used in clinical cancer care. Diagnosis on margins, selected histological features necessary for clinical decision making were provided. Fluorescence images were collected from the tumor and lymph node specimens and study-related biopsies. Margin width and number of positive margins were noted and correlated to the location of fluorescence in the margins. From this, the correlation between Compound 1 fluorescence and histopathology were calculated.
In a total of 24 patients (HNSCC:13; BC:11), 9 patients (HNSCC:6; BC:3) had histologically confirmed tumor positive surgical margins that were undetected during SOC surgery. Fluorescence guided margin assessment was performed on a per-patient basis. Compound 1 imaging visualized all of these surgical margin patients yielding 100% sensitivity. […] There were 5 of 15 false positives (specificity of 67%), in which fluorescence detected tissue was not confirmed to be tumor by histopathological assessment. 5 of 14 (36%) patients had fluorescent tissues that were negative for tumor (PPV: 64%).
In this Phase 1 study, the intraoperative and postoperative imaging data was used for a preliminary analysis of the diagnostic performance of Compound 1. Performance parameters such as MFI, CNR, and TBR were calculated in vivo and in tissue slices to characterize the ability of Compound 1 to delineate tumor tissue from background. Sensitivity and specificity for detecting tumor tissue from the adjacent normal tissue was evaluated using tissue specimen fluorescence and presented as a ROC curve. The sensitivity, specificity, and PPV of Compound 1 fluorescence in detecting pathology confirmed tumor positive margins were obtained at the patient level.

occult lesions = assay: Detection of occult disease by Compound 1 fluorescence; assay type: in vivo, human
Excerpt: During surgery, intraoperative images of Compound 1 fluorescence were obtained from the primary tumors and metastatic lymph nodes as well as the surrounding tissue which include normal noncancerous tissues using NIR camera(s). This may be in vivo and/or ex vivo imaging of resected specimens. If the surgeon considered it safe, up to a maximum of 10 study related biopsies were taken from the regions with Compound 1 fluorescence that were otherwise not suspected as tumor clinically. Feasibility to image tumors with Compound 1 using multiple NIR cameras was evaluated.
Compound 1 fluorescence detected 5 additional occult lesions (1 patient with HNSCC and 4 patients with BC) otherwise missed by SOC preoperative surgery or during surgery or postoperative pathology. In 1 patient with HNSCC (ON1113) who had both a fluorescent and histopathological positive surgical margin, a satellite metastasis that was otherwise undetected by standard-of-care surgery was detected in the wound bed by Compound 1 fluorescence image-guided surgery.

[3] = Phase 1 safety assessment; assay type: in vivo, human
Protocol: Phase 1a was a dose-finding study performed in 5 cohorts of 3 patients each. The dose levels evaluated were […], and 1.2 mg/kg, in this sequence. Inter-cohort dose escalation took place after the last patient in the previous cohort completed the Day 10 safety assessment. Safety, PK, and imaging feasibility were evaluated in both the Phase 1a and 1b portions of the study. Patient safety is assessed during the study and for up to 10 days post-dose.

[4] = pH-dependent activation of Compound 1 in human plasma
[5] = 24 patients (HNSCC:13; BC:11), per-patient

PEO90-140-b-P(DBA60-150-r-ICG0-3-r-AMA0-3) [Compound 1]
% ICG 784 nm (% wt) ([1]; 0 months): 1.3% | Appearance ([1]; 0 months): Pass | Assay RID - Polymeric Content SEC (% wt) ([1]; 0 months): 96.4% | Content 784 nm (% wt) ([1]; 0 months): 80.9% | Identification - SEC (RT) ([1]; 0 months): Pass | Impurities Specified: ICG-like ([1]; 0 months): 1.9% | Microbial Limits Total aerobic count ([1]; 0 months): <1 cfu/mg | Microbial Limits Total yeast and mold ([1]; 0 months): <1 cfu/mg | Total Impurities ([1]; 0 months): 1.9% | Water Content ([1]; 0 months): 0.48% | Duration stable at long-term storage condition ([1]; 3.0 mg/mL injection, the duration thus far): up to 24 months | % ICG 784 nm (% wt) ([1]; 1 month): 1.4% | Appearance ([1]; 1 month): Pass | Assay RID - Polymeric Content SEC (% wt) ([1]; 1 month): 98.5% | Content 784 nm (% wt) ([1]; 1 month): 82.0% | Identification - SEC (RT) ([1]; 1 month): Pass | Impurities Specified: ICG-like ([1]; 1 month): 1.8% | Total Impurities ([1]; 1 month): 1.8% | Water Content ([1]; 1 month): 0.33% | % ICG 784 nm (% wt) ([1]; 6 months): 1.4% | Appearance ([1]; 6 months): Pass | Assay RID - Polymeric Content SEC (% wt) ([1]; 6 months): 102.3% | Content 784 nm (% wt) ([1]; 6 months): 86.2% | Identification - SEC (RT) ([1]; 6 months): Pass | Impurities Specified: ICG-like ([1]; 6 months): 1.7% | Total Impurities ([1]; 6 months): 1.7% | Water Content ([1]; 6 months): 0.54% | % ICG 784 nm (% wt) ([1]; 12 months): 1.3% | Appearance ([1]; 12 months): Pass | Assay RID - Polymeric Content SEC (% wt) ([1]; 12 months): 90.4% | Content 784 nm (% wt) ([1]; 12 months): 74.7% | Identification - SEC (RT) ([1]; 12 months): Pass | Impurities Specified: ICG-like ([1]; 12 months): 1.7% | Microbial Limits Total aerobic count ([1]; 12 months): <1 cfu/mg | Microbial Limits Total yeast and mold ([1]; 12 months): <1 cfu/mg | Total Impurities ([1]; 12 months): 1.7% | Water Content ([1]; 12 months): 0.74% | % ICG 784 nm (% wt) ([1]; 18 months): 1.5% | Appearance ([1]; 18 months): Pass | Assay RID - Polymeric Content SEC (% wt) ([1]; 18 months): 100.4% | Content 784 nm (% wt) ([1]; 18 months): 94.7% | Identification - SEC (RT) ([1]; 18 months): Pass | Impurities Specified: ICG-like ([1]; 18 months): 0.6% | Total Impurities ([1]; 18 months): 0.6% | Water Content ([1]; 18 months): 0.64% | % ICG 784 nm (% wt) ([1]; 24 months): 1.5% | Appearance ([1]; 24 months): Pass | Assay RID - Polymeric Content SEC (% wt) ([1]; 24 months): 99.7% | Content 784 nm (% wt) ([1]; 24 months): 98.1% | Identification - SEC (RT) ([1]; 24 months): Pass | Impurities Specified: ICG-like ([1]; 24 months): 0.6% | Microbial Limits Total aerobic count ([1]; 24 months): <1 cfu/mg | Microbial Limits Total yeast and mold ([1]; 24 months): <1 cfu/mg | Total Impurities ([1]; 24 months): 0.6% | Water Content ([1]; 24 months): 0.51% | Histology vs. Fluorescence Correlation ([2]; 0.1 mg/kg, HNSCC): TP (2×) and TN | Surgical Margin by Fluorescence ([2]; 0.1 mg/kg, HNSCC): Positive; also recorded: Negative | Histology vs. Fluorescence Correlation ([2]; 0.3 mg/kg, BC): TP and TN (2×) | Surgical Margin by Fluorescence ([2]; 0.3 mg/kg, BC): Positive; also recorded: Negative | Histology vs. Fluorescence Correlation ([2]; 0.5 mg/kg, BC): TN | Surgical Margin by Fluorescence ([2]; 0.5 mg/kg, BC): Negative | Histology vs. Fluorescence Correlation ([2]; 0.5 mg/kg, HNSCC): TN and TP | Surgical Margin by Fluorescence ([2]; 0.5 mg/kg, HNSCC): Negative; also recorded: Positive | Histology vs. Fluorescence Correlation ([2]; 0.8 mg/kg, BC): TN and TP | Surgical Margin by Fluorescence ([2]; 0.8 mg/kg, BC): Negative; also recorded: Positive | Histology vs. Fluorescence Correlation ([2]; 0.8 mg/kg, HNSCC): FP | Surgical Margin by Fluorescence ([2]; 0.8 mg/kg, HNSCC): Positive | Histology vs. Fluorescence Correlation ([2]; 1.2 mg/kg, BC): TN (2×) and FP (2×) and TP | Surgical Margin by Fluorescence ([2]; 1.2 mg/kg, BC): Negative; also recorded: Positive | Histology vs. Fluorescence Correlation ([2]; 1.2 mg/kg, CRC): TN | Surgical Margin by Fluorescence ([2]; 1.2 mg/kg, CRC): Negative | Histology vs. Fluorescence Correlation ([2]; 1.2 mg/kg, EC): TN | Histology vs. Fluorescence Correlation ([2]; 1.2 mg/kg, HNSCC): TP (3×) and FP (2×) and TN (2×) | Surgical Margin by Fluorescence ([2]; 1.2 mg/kg, HNSCC): Positive; also recorded: Negative | Fluorescence in patients with histologically negative margin ([2]; 2 of 3 EC and 1 of 3 CRC patients): negative | PPV for surgical margin patients [2, 5]: 64% | Sensitivity for tumor positive surgical margin patients [2, 5]: 100% | Specificity for surgical margin patients [2, 5]: 67% | Patients with false positive fluorescence margins ([2]; BC): 2 | Sensitivity for positive margin patients ([2]; BC): 100% | Specificity for positive margin patients ([2]; BC): 75% | Patients with false positive fluorescence margins ([2]; HNSCC): 3 | Sensitivity for positive margin patients ([2]; HNSCC): 100% | Specificity for positive margin patients ([2]; HNSCC): 57% | False negatives in surgical margin detection ([2]; HNSCC and BC): no false negatives | False positives (fluorescent tissue not confirmed tumor by histopathology) ([2]; HNSCC and BC, per-patient): 5 of 15 | Histologically proven tumor positive surgical margins detected ([2]; HNSCC:6, BC:3): 9 out of 9 and 9 | Additional occult lesions detected (occult lesions; 1 patient with HNSCC and 4 patients with BC): 5 | Other occult tumors detected by in vivo wound-bed imaging (occult lesions; missed by routine surgery, confirmed by pathology): 2 | Additional satellite lesions and second primaries detected ex vivo (occult lesions; pathology specimens): 3 | Safety profile ([3]; Phase 1a, 0.1 to 1.2 mg/kg): comparable at all the dose levels studied and did not raise any specific safety concerns | Tolerability ([3]; Phase 1b, 1.2 mg/kg): well tolerated | Fluorescence on adding increasing amounts of Compound 1 ([4]; human plasma with HCl): increase in fluorescence | Fluorescence on adding increasing amounts of Compound 1 ([4]; human plasma, no acid): did not show any increase in fluorescence
